The results in this text go back to patent publication US5472841.

pKd: −log10 of the molar value.

This series concerns the target T1, Human neutrophil elastase (Homo sapiens) (UniProt P08246).
T1 sequence: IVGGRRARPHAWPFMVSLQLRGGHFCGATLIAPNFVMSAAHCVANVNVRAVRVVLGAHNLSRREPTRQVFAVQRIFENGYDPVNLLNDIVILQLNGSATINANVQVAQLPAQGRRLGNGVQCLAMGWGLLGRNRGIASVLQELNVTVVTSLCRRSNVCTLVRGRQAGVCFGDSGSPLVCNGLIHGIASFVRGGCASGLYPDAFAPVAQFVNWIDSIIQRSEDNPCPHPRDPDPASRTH
The series is described as follows: filter. The note with it: apparent Kd.

One may read the pKd as −log10 of the Kd, conventionally taken in molar units. As to “CCCCTGCAGGTGATTTTGCTCAAGTNNNNNNNNNNNNNNNNNNNNNNNNNNNNNNNNNNNNNNNNAGTATCGCTAATCAGGCGGATC [random ssDNA pool]”, the pKd was 6.60.
